T1: human IL-11 (human, UniProt P20809 22-199)
T1 sequence (looked up): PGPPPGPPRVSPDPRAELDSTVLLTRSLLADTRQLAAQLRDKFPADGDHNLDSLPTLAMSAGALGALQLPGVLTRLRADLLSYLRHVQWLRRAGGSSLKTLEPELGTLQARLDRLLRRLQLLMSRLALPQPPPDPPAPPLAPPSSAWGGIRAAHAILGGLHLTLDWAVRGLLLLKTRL

B1: YU100-E01 (scFv)
scFv: QVQLQQSGGGVVQPGRSLRLSCAASGFTFSSYGMHWVRQAPGKGLEWVAVISYDGSNKYYADSVKGRFTISRDNSKNTLYLQMNSLRAEDTAVYYCAKIGATDPLDYWGQGTLVTVSSGSASAPKLEEGEFSEARVQSALTQPASVSGSPGQSITISCTGTSNDIGAYNYVSWYQQHPGKAPKLLIYDVNNRPSGVSDRFSGSKSGNTASLTISGLQAEDEADYYCCSYAGSYSWVFGGGTKLTVLGQPKANPTVTLFPPSS
B2: YU112-E07 (scFv)
scFv: QVQLVQSGGGVVQPGRSLRLSCAASGFTFGSYGMHWVRQAPGKGLEWVAVISYDGSNKYYADSVKGRFTISRDNSKNTLYLQMNSLRAEDTAVYYCAKGSYYFDYWGQGTLVTVSSGSASAPKLEEGEFSEARVEIVMTQSPDSLAVSLGERATINCKSSQSVNSAYLAWYQHKPGQPPRLLIYGASRRVTGVPDRFSGSGSGTDFTLTISSLQPEDFATYYCQQSYSDPRWTFGQGTKVEIK
B3: YU100-E06 (scFv)
scFv: QVQLVESGGGVVQPGRSLRLSCAASGFTFSSYGMHWVRQAPGKGLEWVAVISYDGSNKYYADSVKGRFTISRDNSKNTLYLQMNSLRAEDTAVYYCAKIGATDPLDYWGQGTLVTVSSGSASAPKLEEGEFSEARVQSALTQPASVSGFPEQSITISCTGTSSDVGGYDYVSWYQQHPGKAPKLMIYDVTNRPSGVSNRFSGSKSGNTASLTISGLQPEDEADYYCSSYTSNTTWVFGGGTKLTVLRQPKAAPSVTLFPPSS
B4: YU100-D02 (scFv)
scFv: QVRLVQSGGGVVQPGRSLRLSCAASGFTFSSYGMHWVRQAPGKGLEWVAVISYDGSNKYYADSVKGRFTISRDNSKNTLYLQMNSLRAEDTAVYYCAKIGATDPLDYWGQGTLVTVSSGSASAPKLEEGEFSEARVQSALTQPRSVSGSPGQSVTISCTGTSGDVGTYNYVSWYQQHPGKAPKLMIFDVSKRPSGVPDRFSGSKSGNTASLTISGLQAEDEADYYCNSYAGSYTWVFGGGTKLTVLGQPKAAPSVTLFPPSS
B5: YU100-D05 (scFv)
scFv: QVQLQQSGGGVVQPGRSLRLSCAASGFTFSSYGMHWVRQAPGKGLEWVAVISYDGSNKYYADSVKGRFTISRDNSKNTLYLQMNSLRAEDTAVYYCAKIGATDPLDYWGQGTLVTVSSGSASAPKLEEGEFSEARVQSALTQPASVSGSPGQLITISCTGTNSDVGGYNYVSWYQQHPGKAPKLMIYDVSNRPSGVSNRFSGSKSGNTASLTISGLQAEDEADYYCCSYAGSYTWVFGGGTKLTVLGQPKAAPSVTLFPPSS
B6: YU100-D11 (scFv)
scFv: QVQLVQSGGGVVQPGRSLRLSCAASGFTFSSYGMHWVRQAPGKGLEWVAVISYDGSNKYYADSVKGRFTISRDNSKNTLYLQMNSLRAEDTAVYYCAKIGATDPLDYWGQGTLVTVSSGSASAPKLEEGEFSEARVQSALTQPRSVSGSPGQSVTISCTGTSSNVGGYNYVSWYQQHPGKAPKLMIYDVSKRPSGVPDRFSGSKSGNTASLTISGLQAEDEANYYCASYAGNYNWVFGGGTKLTVLGQPKAAPSVTLFPPSS
B7: YU100-E04 (scFv)
scFv: QVQLQQSGGGVVQPGRSLRLSCAASGFTFSSYGMHWVRQAPGKGLEWVAVISYDGSNKYYADSVKGRFTISRDNSKNTLYLQMNSLRAEDTAVYYCAKIGATDPLDYWGQGTLVTVSSGSASAPKLEEGEFSEARVQSALTQPRSVSGSPGQSVTISCTGTSSDVGGYNYVSWYQQHPGKTPKLMIYDVTKRPSGVPDHFSGSKSGNTASLTISGLQAEDEADYYCCSYAGSHIWVFGGGTKLTVLGQPKAAPSVTLFPPSS
B8: YU45-D9/D3 (Fc fusion)
VH: EVQLVESGGGVVQPGRSLRLSCAASGFTFSSYGMHWVRQAPGKGLEWVAVISYDGSNKYYADSVKGRFTISRDNSKNTLYLQMNSLRAEDTAVYYCARLHFSQYFSTIDAFDIWGQGTMVTISS
VL: QSVLTQPPSVSAAPGQEVTISCSGSSSNIGNNYVSWYQHLPGTAPKLLIYDNTERPSGIPDRFSGSRSGTSVTLGITGLQTGDEADYYCGTWDSSLSGGVFGGGTKLTVL
notes: tested as scFv-Fc (human IgG1); also called #31
B9: YU46-A8 (Fc fusion, not shown: a dimerising Fc or GST; small tags and cut ends)
VH: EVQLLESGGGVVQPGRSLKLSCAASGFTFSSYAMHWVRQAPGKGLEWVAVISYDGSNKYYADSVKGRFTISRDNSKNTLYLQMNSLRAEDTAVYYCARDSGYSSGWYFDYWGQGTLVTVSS
VL: QSALTQPRSVSGSPGQSITISCTGTSSDVGGYEYVSWYQQHPGKAPRLLIYDVSNRPSGVSNRFSGSKSGNTASLTVSGLQAEDEADYYCNSYTSSGTLVVFGGGTKLTVL
notes: tested as scFv-Fc (human IgG1); also called #45
B10: YU45-C11/A10 (Fc fusion)
VH: EVQLLESGGGVVQPGRSLRLSCAASGFTFSSYAMHWVRQAPGEGLEWVAVISYDGSNKYYADSVKGRFTISRDNAKDSLYLQMNSLRDEDTAVYYCARRGYFDYWGQGTLVTVSS
VL: QSALTQPASVSGSPGQSITISCTGTSSDVGGYNYVSWYQQHPGKAPKLMIYDVSNRPSGVSNRFSGSKSGNTASLTISGLQAEDEADYYCSSYTSSSTVVFGGGTKLTVL
notes: tested as scFv-Fc (human IgG1); also called #6
B11: YU45-H11/D12 (Fc fusion)
VH: EVQLLESGGGVVQPGRSRRLSCAASGFTFSSYGMHWVRQAPGKGLEWVAVISYDGSNKYYADSVKGRFTISRDNSKNTLYLQMNSLRAEDTAVYYCAKLYSGSSNFDYWGQGTLVTVSS
VL: QSALTQPASVSGSPGQSITISCTGTSSDVGGYNYVSWYQQHPGKAPKLMIYDVSNRPSGVSNRFSGSKSGNTASLTISGLQAEDEADYYCSSYTSSSTWVFGGGTKLTVL
notes: tested as scFv-Fc (human IgG1); also called #9
B12: YU45-H3 (Fc fusion)
VH: EVQLVESGGGVVQPGRSLRLSCAASGFTFSSYAMHWVRQAPGKGLEWVAVISYDGSNKYYADSVKGRLTISRDNSKNTLYLQMNSLRAEDTAVYYCARMVNLYYGDAFDIWGQGTMVTVSS
VL: QSALTQPASVSGSPGQSITISCTGTSSDVGGYNYVSWYQQHPGKAPKLMIYDVSNRPSGVSNRFSGSKSGNTASLTISGLQAEDEADYYCSSYTSSSTVVFGGGTKLTVL
notes: tested as scFv-Fc (human IgG1); also called #25
B13: YU45-H10 (Fc fusion)
VH: EVQLLESGGGVVQPGRSRRLSCAASGFSLNSYGMHWVRQAPGKGLEWVAVISYDGSNKYYADSVKGRFTISRDNSKNTLYLQMNSLRAEDTAVYYCAKLYSGSSNFDYWGQGTLVTVSS
VL: QSALTQPASVSGSPGQSITISCTGTSSDVGGYNYVSWYQQHPGKAPKLMIYDVSNRPSGVSNRFSGSKSGNTASLTISGLQAEDEADYYCSSYTSSSTWVFGGGTKLTVL
notes: tested as scFv-Fc (human IgG1); also called #22
B14: YU45-G7 (Fc fusion)
VH: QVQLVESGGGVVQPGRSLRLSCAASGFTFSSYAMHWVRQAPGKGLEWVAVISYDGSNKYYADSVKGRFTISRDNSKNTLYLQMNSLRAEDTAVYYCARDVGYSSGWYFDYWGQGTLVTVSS
VL: QSVLTQPPSVSAAPGRTVTISCSGSYSNVGSNLVSWYQQLPGTAPKLVIYEDDKRLSGIPDRFSGSKSGTSASLAISGLQSEDEADYYCAAWDDSLKGHVFGGGTQLTVL
notes: tested as scFv-Fc (human IgG1); also called #33
B15: YU45-G1 (Fc fusion)
VH: EVQLLESGGGVVQPGRSLRLSCAASGFTFSSYGMHWVRQAPGKGLEWVAVISYDGSNKYYADSVKGRFTISRDNSKNTLYLQMNSLRAEDTAVYYCAKLSGPNGVDYWGQGTLVTVSS
VL: QSALTQPRSVSGSPGQSVTISCTGTSSDVGGYNYVSWYQQHPGKAPKLMIYDVSKRPSGVPDRFSGSKSGNTASLTVSGLQAEDEADYYCCSYAGSYTFVFGGGTKLTVL
notes: tested as scFv-Fc (human IgG1); also called #11
B16: YU46-E3 (Fc fusion, not shown: a dimerising Fc or GST; small tags and cut ends)
VH: QVQLVESGGGVVQPGRSLRLSCAASGFTFSSYGMHWVRQAPGKGLEWVAVISYDGSNKYYADSVKGRFTISRDNSKNTLYLQMNSLRAEDTAVYYCARIGGYDDFDYWGQGTLVTVSS
VL: QSALTQPASVSGSPGQSITISCTGTSSDVGGYNYVSWYQQHPGKAPKLMIYDVSNRPSGVSNRFSGSKSGNTASLTISGLQAEDEADYYCSSYTSSSTWVFGGGTKLTVL
notes: tested as scFv-Fc (human IgG1); also called #50
B17: YU45-A8/C6 (Fc fusion)
VH: QVQLVESGGGVVQPGRSLRLSCAASGFTFSSYGMHWVRQAPGKGLEWVAVISYDGSNKYYADSVKGRFTISRDNSKNTLYLQMNSLRAEDTAVYYCAKLSGPNGVDYWGQGTLVTVSS
VL: QSALTQPASVSGSPGQSITISCTGTSSDVGGYNYVSWYQQHPGKAPKLMIYDVGNRPSGVSNRFSGSKSGNTASLTISGLQAEDEADYYCSSYTSGSTWVFGGGTKLTVL
notes: tested as scFv-Fc (human IgG1); also called #27
B18: YU45-B6 (Fc fusion)
VH: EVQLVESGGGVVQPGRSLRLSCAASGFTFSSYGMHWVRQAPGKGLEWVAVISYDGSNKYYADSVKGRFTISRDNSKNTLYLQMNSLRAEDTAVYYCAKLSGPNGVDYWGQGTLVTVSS
VL: QSALTQPRSVSGSPGQSVTISCTGTSRDVGGYNYVSWYQQHPGEAPKLMIFDVSKRPSGVPDRFSGSKSGNTASLTISGLQAEDEADYYCCSYADYYTWVFGGGTKVTVL
notes: tested as scFv-Fc (human IgG1); also called #36
B19: YU46-B6 (Fc fusion, not shown: a dimerising Fc or GST; small tags and cut ends)
VH: QVQLVQSGAEVKKPGASVKVSCKASGYTFTSYGISWVRQAPGQGLEWMGWISAYNGNTNYAQKLQGRVTMTTDTSTSTAYMELRSLRSDDTAVYYCARVVAAARSYYYYMDVWGKGTTVTVSS
VL: SSELTQDPAVSVALGQTVRITCQGDSLRGYYATWYQQKPGQAPVVVMYGNNNRPSGIPDRFSGSSSGNTASLTITGAQAEDEADYYCDSRGRSGDHWLFGGGTKLTVL
notes: tested as scFv-Fc (human IgG1); also called #47

target: T1, human IL-11; experiment: cell-based or functional assay

Binder | MMP2 production (ng/ml), TGFB1-stimulated human atrial fibroblasts, Experiment 1 (NEG 42.7, POS 70.2) [ng/mL] | MMP2 production (ng/ml), TGFB1-stimulated human atrial fibroblasts, Experiment 2 (NEG 36.2, POS 62.3) [ng/mL]
B1 | 59.3 | 51.8
B2 | 53.5 | 49.1
B3 | 54.1 | 48.2
B4 | 49.6 | 42.2
B5 | 53.3 | 48.8
B6 | 51.2 | 47.2
B7 | 50 | 43.5

target: T1, human IL-11; experiment: EC50 from the indirect ELISA titrations of FIGS. 28A-28F on plate-coated recombinant human IL-11 (five-parameter fit), ng/ml is the concentration unit of FIG. 28 and paragraph 502

Binder | EC50 [µg/mL]
B8 | 0.71
B9 | 0.351
B10 | 0.0677
B11 | 0.0146
B12 | 0.126
B13 | 0.0248
B14 | 0.0101
B15 | 0.0428
B16 | 0.707
B17 | 0.71
B18 | 4.98
B19 | 0.222
